Test results published in a protein production outcome set (Wang et al. 2014).

Assay: label from the status in PepcDB records

| Sequence | protein production |
| --- | --- |
| MDDLASQSFPEPERAIMKATYQVLCEYGYADLTIQQIADEYGKTTTAVHYHCDTKNKLLTAFLDYLLEELADSVHNIRTTNPENRLKFLLDELLVKSKNEPVLSIALLEMQSQTPYKEPFRERFKQMAVVNRQTELDFTVSETA | failed |
| MRNSMMTIYPHLIICPHCDSVHHYRALNPGEAARCTRCQATLYRSGWINTGHSLALIQTAAIVFFIANSYPVLTVSFHALQNTATLWQAALALANGATLPLAIGCFFILIMAPFLQIMLTGWVLMFANKDRCAPGFIPVMKILLWLRPWSMLEIATLGFLIAAIKLSGFMQVMPGAGCWALAALMLLLVVVNSIDLRPLWSLVPTDSNHSVVRHEK | failed |
| MKRLDLVAGPNGAGKSTFVALTLAPLLPGIVFVNADEIAKQRWPDDPTSHAYQAAQVAADTRARLIDLGRPFIAETVFSHPSKLELIRTARTAGYTVVLHVLVIPEGLAVERVRHRVAAGGHDVPETKIRERHRRLAELVAQAITLADGATVYDNSRLAGPRIVAQFSGGGIIGRACWPSWTPPPLMSRWSNRPETA | failed |
| IQHATASLIQTNTDQELLVVDVTPSFASLWLVPNINDFHQRHPNIRVKILTGDGAVKNIHGESDLHVRCLPLSTHYEYSQLLCEETLLLIGNTNLPKLSDNQAISHYPFIPQTTRPQLWEQFKQENDLECPITYHSVGFEHFYLACEAVRMEKGLALLPDFMAQFSILRGDIQHIGNLKLHSGYGYYVVIPNFRLTSRKVALFHDWLKDKLTHHT | not failed |
| IVAQGEDFVVSGALNLSLIRERTGFQAKATEDYQTLAGLVMSLLDRLPSTGDSLSWQGWNLQVVGVEERRVTRVLLQKQPAASAGK | failed |
| MGGMRWLLLAKQPALGGAAALEGVMMKAPWAWALAVRLPDGRIHVERHEERALTERYPWTRLPLLRGVVALFDALSVSYRALARSAELAGGEEVPRGALWGTVA | failed |
| MKRVNQNLYQLLRRIYWRLPLPEETKELLVGFARRFLRGMKKALAEPVTTASSASVSREKILQEYANQILAIPRKSGNEYVEISSSSYQRKEGDAKILAYYLPQFHPTKENDMWWGKGVTEWNNVSRAMPQYVGHYQPRLPGELGYYDLRILDNMRRQVELAQMYGIYGFCFYYYWFDGKRLLDKPLDMFLEAKTIDFPFSLCWANESWTRRFDGSCGEILVKQSETVESYIAFINSVVPYMRDSRYIRMNGKPIFTIYRPSFIPECASTITAWREHCVKAGIGDIYIIGIKEHTWDVNLIELGFDAQSEFHPGTLFKHCVDISSQINYMQDFGGIVLDYRDIVEHKKYFLYNHPKLHRAAMPMWDNSARRDNKGMIFEGASPDLYERWLTDILLEAKNREDLEDHYIFINAWNEWGEGAYLEPDKKYGYAYLNATRQAIEGVRS | failed |
| METSMRYTSNSKSMKIHAKEKVPVNSKTHLQLHGELDTGTGAPSYFCAMIRHFFPEASTGLGVGLHYDKRQKLRCLVRGKKEFPVRADKRVTFNIKGRCDIDQDLNQKNPKGAAEFAWNIMDFKEDQDVRIKVGYEMFDKVPYMQIRENNWTLNANMKGKWNLRYDL | failed |
| SDRGQAEEAAGRQARAVSLAIADSPSVAEAIRTPDPTALLQPYAVRVMRDTDVDFVTIMNPEGIRWTHPEPTEIGHLFQGHIERAQRGQTFTETYTGTLGPSVRAVTPIVDDGRIVGLVSAGIKVEEIS | failed |
| MAVFVALGAFLMTLAGGWTAQRVTDRRHLVLGLAGGLMLGVVGLDLLPEALEAAGDEVFGVPAALLLFVAGFLLAHLVERLLAARRAAHGADEHEHRSPEVGLTAAAAMVGHSAMDGVAIGAAFQVGGGMGAAVAMAVIAHDFADGFNTYTLTSLYGNARRRAVAMLVADAIAPVLGASSTLLFTIPEGALGAYLGLFGGVLLYLAAAEILPEAHHEHPARSTLLCTVAGAAFIWLVVGIAE | failed |
| MGYLKNHWWKRWIRRRGCKLAGGPASVGKRTTLVLEERVELGHLRIVPPRLEIGAYSYVRSGTDLSLVASIGRFCSIGSDCFIGQEKHTHPSDWVSSHPFQHTGTALRYEPALSYAEIGHDVWIGHSAMVMEGVKVGTGAIIATRAVVTRDVPPYAIVAGTPAQVIRYRHPPEIIEGLLASRWWELDSAFLTGLPLDRPREFLAALEAREAPRAAYRRMTITRQGCRLDLEHHHHHH | failed |
| MGNVGLLFVGAVLFMNGLLLLGKVDAKAAAVFNLFIGALQVLTPTYLIFTANGDPMKILAASGIYLFGFTYLYVGIGLLTGLDSTGVGYYSLFVAVAALGYSFVNFRLFKDYPFGVIWLYWAYLWFLFFLLLGLKKDDLKIYTGWVTAIEGWVTGAIPAGLLLSGYWKHPTETAIALAVFGVVVFVGLWPRTHRTPRPTSAAPRTGGVGAPT | failed |
| MTATEPTEKILPSPDYVQSLARGLAVIRCFDHRNQRRTLSDVARATDLTRATARRFLLTLVELGYVATDGSAFWLTPRVLELGYSYLSSLSLPEVAQPHLEKLSHKVHESSSVSILDGADIVYVARVPVSRIMTVGITIGTRLPAYATSMGRVLLAGLPDDELDAYLEKLDIQRLTERTITARDELKAAILAVRADGICVLDQELEAGLRSMAAPIRGASGLTVAAVNISTPAARYSLEDLHSDLIPSLRVTATDIEQDLATVNR | not failed |
| MESDSEMVPFPQLPMPIENNYRACTIPYRFPSDDPKKATPNEISWINVFANSIPSFKKRAESDITVPDAPARAEKFAERYAGILEDLKKDPESHGGPPDGILLCRLREQVLRELGFRDIFKKVKDEENAKAISLFPQVVSLSDAIEDDGKRLENLVRGIFAGNIFDLAVKTWFHDHGSLMTWKTSKPNGSISLGRRSLICFALPFNASFRLQCLFSELKYTLNCSSSSSFPFKVVLAANELPSINDITCTELTEILSQLKDENGQLLGVDTSKLLIANSGNDLPVIDLSRVSQELAYLSSDADLVIVEGMGRGIETNLYAQFKCDSLKIGMVKHLEVAEFLGGRLYDCVFKFNEVQS | not failed |
| MGCYHPLSGTDGTLMRHTLPIAPQFYVTAPQPCPYLAGRMERKLFTALQGEGAERLNNALSQQGFRRSQNVLYRPSCADCAACLSARIDVSAFRASRSQKRAMRRNAHLTRRATSPWATDEQYELFRRYLDSRHADGGMADMDVFEFAAMIEETPIRSRVIEYAHRDTRALIGVSLTDVLDDGLSMVYSFYDPDLHRDSLGTHMILDHIAIAREAGLPYVYLGYWVPGSPKMGYKSRFSGLEIYLGGRWQAMTDPEAHDAIRHPLSTDPIAEQVANIQLPDRWPTGD | failed |
| MAHHHHHHMGGPPTIEELKREKIIPHVFPDENVDLTVDMYISFKSGKEVNHGNILDLAGTGSVPRNIKFSEEPPEDYCYILFMIDPDFPSRRRPDGRDYVHWAVSGIKSKELVKGTDKNCITLLPYVGPSIKKGTGLHRISFILSLVKEENKGNVTGVPLYRGEHYITRVKFNNCQSAYNVIQMNDMKIVGFNWCQIEA | not failed |
| MDNLFYYMIIQNDRIQPIIVRQPQTVIIHSQPKLPITLDLPPQNIILKNEDPQPIIVRQSNPNIIIEKSQNDFYNHPNFHIGLHDKVNSMSDINNTNIKEQPIKDNMIEDMQNINNADTQFYYNNQNVINENNVLPTHYSYLNNGVFNKEHNYDPYNFTLYSNK | failed |
| MKTFKGKVTTTLAVLSAMSLFAFSASLLAGSLDLSGRSDDDTQQDTGRKPAQIIDFVGVEKGDKVLDLLAGGGYYSELLSRVVGEKGEVTLQIPKAYLKYAEKSIKVRLANDRLKNVTYLLSEADDLKLSENTYDSAFLVLGFHDMFFKEDSWNFTADEVMPQVLTSLKSGGKLLVIDHDATENSGIRDVKSLHRIDSAFVKADLEKRGFKLVKTSKILENNADDHSKLVFVPELRRKTDRFVMLFEKI | failed |
| MEQLQIGDIKVTWLKGGNTHLDGGAMFGVVPKVLWSRKYKHNDTNHIYLRTDPLLLQTKDGNMLIDSGIGNGKLNEKMKRNQGVTEESSVYESLEKLGLKPEDIDYVLMTHLHFDHASGLTKWEDDHLVPSFPNAKVYVSETEWNEMRNPNIRSRNTYWKENWEPIVDQVVTFQQEIEITDEIKMARTGGHSDGHAVIALESQGETMLHLADLLPTHAHQNVLWVMAYDDYPMTSIENKQKWMKYGAEKEAWFTFYHDAYYRAVKWNEEGHIVEKIERKTSIEA | failed |
| MDKNIKNKAEELIKDLIQKIDNNPYDAQAYYNLGVALNDAHSAEQAEELFKKALNIFANSKEKSSLMHYGLGNVYYTNSIYDKAIVEFKKVQSEKLKQDSMLMMAQAYYAQENYPQAMMYALTVSENTKHNVDAISLLASCFMATGDLTNARKYYLKALEYDKDNVEVLFQLGVIELSLSGEAGKYFDRVKNLDNEYYKKMQQRLADVQRFLMTQKKGKSDE | failed |
| MAAVILESIFLKRSQQKKKTSPLNFKKRLFLLTVHKLSYYEYDFERGRRGSKKGSIDVEKITCVETVVPEKNPPPERQIPRRGEESSEMEQISIIERFPYPFQVVYDEGPLYVFSPTEELRKRWIHQLKNVIRYNSDLVQKYHPCFWIDGQYLCCSQTAKNAMGCQILENRNGSLKPGSSHRKTKKPLPPTPEEDQILKKPLPPEPAAAPVSTSELKKVVALYDYMPMNANDLQLRKGDEYFILEESNLPWWRARDKNGQEGYIPSNYVTEAEDSIEMYEWYSKHMTRSQAEQLLKQEGKEGGFIVRDSSKAGKYTVSVFAKSTGDPQGVIRHYVVCSTPQSQYYLAEKHLFSTIPELINYHQHNSAGLISRLKYPVSQQNKNAPSTAGLGYGSWEIDPKDLTFLKELGTGQFGVVKYGKWRGQYDVAIKMIKEGSMSEDEFIEEAKVMMNLSHEKLVQLYGVCTKQRPIFIITEYMANGCLLNYLREMRHRFQTQQLLEMCKDVCEAMEYLESKQFLHRDLAARNCLVNDQGVVKVSDFGLSRYVLDDEYTSSVGSKFPVRWSPPEVLMYSKFSSKSDIWAFGVLMWEIYSLGKMPYERFTNSETAEHIAQGLRLYRPHLASEKVYTIMYSCWHEKADERPTFKILLSNILDVMDEES | not failed |
| MAYREKDTKKWTAQWFETNVMGEKKKRRKRGFETKREALEFERSKKLSNERSMDMKLSDFIEIYFSDKQNDLKDRTIKNKRYMMQQHIVPYFGNQMMSEIKASQIIQWQNEIQKKGYSDSYLRMIQNQLTSLFTHAAKIYDLPVNPCKKVKRMGNSDSRSLNFWTLDEYKQFIQTMEPGTRYYLMFEMLFWTGCRIGELLAITKADINFEKNQLSINKTYYRTGMQDIITEPKTKQSFRTIEIPEFLKEEIKEFVDGHYGMPDTERLFPVVQEAVQHKMKRQIELAGVKKIRVHDIRHSHVAYLIEKGVEPLLIRDRLGHKDIRITLNTYGHLYPNQQRKIANLLDNENGNAVTGLGEERDEC | failed |
| MDLICMYVFKGEESFGESIDVYGDYLIVKVGTEFLAVPKKSIKSVEDGRIVIGEFDEEEARELGRKWLEEKSKPVTLEELKSYGFGEEGE | not failed |
| SNKLYIGNLSPAVTADDLRQLFGDRKLPLAGQVLLKSGYAFVDYPDQNWAIRAIETLSGKVELHGKIMEVDYSVSKKLRSRKIQIRNIPPHLQWEVLDGLLAQYGTVENVEQVNTDTETAVVNVTYATREEAKIAMEKLSGHQFENYSFKISYIPDEEVSSPSPPQRAQRGDHSSREQGHAPGGTSQARQIDFPLRILVPTQFVGAIIGKEGLTIKNITKQTQSRVDIHRKENSGAAEKPVTIHATPEGTSEACRMILEIMQKEADETKLAEEIPLKILAHNGLVGRLIGKEGRNLKKIEHETGTKITISSLQDLSIYNPERTITVKGTVEACASAEIEIMKKLREAFENDMLAVNQQANLIPGLNLSALGIFSTGLSVLSPPAGPRGAPPAAPYHPFTTHSGYFSSLYPHHQFGPFPHHHSYPEQEIVNLFIPTQAVGAIIGKKGAHIKQLARFAGASIKIAPAEGPDVSERMVIITGPPEAQFKAQGRIFGKLKEENFFNPKEEVKLEAHIRVPSSTAGRVIGKGGKTVNELQNLTSAEVIVPRDQTPDENEEVIVRIIGHFFASQTAQRKIREIVQQVKQQEQKYPQGVASQRSK | not failed |
